This note sets out measurements from patent publication US20250034594A1, “RNA-GUIDED GENOME RECOMBINEERING AT KILOBASE SCALE” (THE BOARD OF TRUSTEES OF THE LELAND STANFORD JUNIOR …, priority 2021, published 2025).

Holding throughout (format): cell-based
One assay relates to gene editing with Cas9. The assay is described as follows: Screen of 322 new SSAP proteins, gene editing activity with Cas9 (Table 5). Details: Cas9 with SSAP activity: scale not given here. The method, boiled down:
(§1)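 Read-out is gene editing activity. Candidates come from sequence data mining, are made synthetically, and are tested alongside either nuclease-active Cas9 or catalytically dead dCas9.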

For the next assay, the system named is gene editing with dCas9. The experiment in a line: Screen of 322 new SSAP proteins, gene editing activity with dCas9 (Table 5). Set-up: dCas9 with SSAP activity: scale not given here. The method, boiled down:
as §1

For assay [1], the system named is gene editing with Cas9 and dCas9. The assay is described as follows: Screen of 322 new SSAP proteins, activity across all experiments (Cas9 and dCas9, Table 5). Set-up: scale not given here. Put shortly: as §1

B1: SSAP_70: SEQ ID NO: 239 (protein)
chain: SNLKNQLANKAGGTATKKQPQTMQDWIKVMEPQIKKALPSVITAERFTRMALTAISTNPKLAECTPESFMGALMNAAQLGLEPNTPLGQAYLIPYGKSVQFQVGYKGLMELAQRSGQFKSIYAHTVYENDEFEVEYGLTQNIVHKPNFDDRGKPIGFYAVYKLTNGGENFVFMTQREVEEFGKAKSKTFNNGPWKTDFEAMAKKTVLKQLLKYAPIKVEFQREIAQDATIKTEIAEDMTEVPEEMVEAEYEVVEQNTMAEDADLKGTPFETK
Regarding B1, in the assay on gene editing with Cas9, the “Cas9 with SSAP activity” value is given as −1.263 and the “Cas9 with SSAP activity (normalized)” value is listed as −0.349. In the assay on gene editing with dCas9, the “dCas9 with SSAP activity” value is on record as −4.070 and the “dCas9 with SSAP activity (normalized)” value is on record as −0.652. Further, the “Activity across all experiments” value in assay [1] is −2.666.

B2: SSAP_25: SEQ ID NO: 194 (protein)
chain: NNEVMEKSVEYEVNGNSVKLTPNMIKQFITKGNADVTDQEAIMFMKLAEQQQLNPFLNEVYLIKFKGKPAQNIVAKEAFMKRAEKHSEYDGLEAGIIVQRGEEIKELPGAVCLPTDNLLGGWARVYRKDRKNPFYVQLDFKEFSKGQATWNQMPKNMIRKTAIVNALREAFPEALGAMYTEDDARLEEVKTAEPIKEKAETTQILENKFKELSENGQTEVGDEQTNESTEPEPTAKQEQLL
Take B2: in the assay on gene editing with Cas9, the “Cas9 with SSAP activity” value worked out at 0.597 and the “Cas9 with SSAP activity (normalized)” value was 0.880. Further, in the assay on gene editing with dCas9, the “dCas9 with SSAP activity” value is −4.113 and the “dCas9 with SSAP activity (normalized)” value is listed as −0.660. In addition, the “Activity across all experiments” value in assay [1] is on record as −1.758.

B3: SSAP_206: SEQ ID NO: 375; Actinopolyspora xinjiangensis (protein, listed as Actinopolyspora xinjiangensis)
chain: TGQTIGTAVAKKDDENPSAIIATNRADLARVMPSHVRTDSWVRIAQGIVRRDKNLAHAARQSPGTLMVALMEAARLGLEPGTEQYYLTPRKNKGKPEVLGIPGYQGLIELMYRSGAVSSVVVETVRENDTFQWAPGRMERPEHEADWFAINGERGQLRGVYAYAIMSNGATSKVVVLNRNDIARARDSAQGADSEHSPWKNHEEAMWLKTAARRLAKWVPTSTEDRRIVQGVAERSDQPTEAPLDLTDEPDTDQPIEGELVDEEATQ
In the case of B3, in the assay on gene editing with Cas9, the “Cas9 with SSAP activity” value stood at 2.444 and the “Cas9 with SSAP activity (normalized)” value worked out at 1.806. In addition, in the assay with gene editing with dCas9, the “dCas9 with SSAP activity” value is on record as −4.016 and the “dCas9 with SSAP activity (normalized)” value is given as −0.671. For the same molecule, the “Activity across all experiments” value in assay [1] is reported as −0.786.

B4: SSAP_107: SEQ ID NO: 276; Ammoniphilus oxalaticus (protein, listed as Ammoniphilus oxalaticus)
chain: STKATSNELKNQLANRQGNNAATNNNPANTIAAYLKRMAPEIEKALPAHMDADRLARIALTTIRTTPKLLECTIPSLMGAVMQSAQLGLEPGLIGHCYIIPYGKEATFIIGYKGMIDLARRSGNIESIYAHAVYKNDEFEYEYGLKPNLVHKPAMSDQGDFIGAYAVAHFKDGGYQFEFMPKEEIDKRRNRSAASKGGPWVTDYEEMAKKTVVRHMWKYLPISIEIQQAATQDEVVRKDITEDPMPVDVLDIPFEASDAEETSEEGEINFD
Regarding B4, in the assay on gene editing with Cas9, the “Cas9 with SSAP activity” value worked out at 0.596 and the “Cas9 with SSAP activity (normalized)” value came out at 1.792. In the assay on gene editing with dCas9, the “dCas9 with SSAP activity” value is −4.159 and the “dCas9 with SSAP activity (normalized)” value was −0.615. Besides, the “Activity across all experiments” value in assay [1] is −1.782.

B5: SSAP_271: SEQ ID NO: 440; Nocardia ninae (protein, listed as Nocardia ninae)
chain: AESISKEVARQANPLAVVAKYQNELGKSMPAAIRGDVGRWMMVAEMAVRKNPKLLSIVQADQGASLMRALIECARLGHEPGTKYFYLVPRGNQISGEEGYHGIIKRVLNSGHYQKVLARTVFERDEYSFDPLTDQLPTHVPASGERGKPVSAYAFALHWDGTPSTVAEASPERIAAAKAKSYGTDRKDSPWQSVTGVMYRKTAIRELEPYVHTSAEPQPRQDNAGSRGAVMDPSTYDDAEPLDADVLDITADQIAEHDGEGAL
Turning to B5, in the assay with gene editing with Cas9, the “Cas9 with SSAP activity” value came to 0.372 and the “Cas9 with SSAP activity (normalized)” value came out at 0.623. In the assay on gene editing with dCas9, the “dCas9 with SSAP activity” value is listed as −3.947 and the “dCas9 with SSAP activity (normalized)” value is listed as −0.622. In addition, in assay [1], the “Activity across all experiments” value was −1.788.

B6: SSAP_147: SEQ ID NO: 316; Staphylococcus felis (protein, listed as Staphylococcus felis)
chain: ANANSFKEQVSNKNEVSENNNTPQQKTKGPRQQVSDLLERMAPEIQKALPSHMSAERMARIAMTAISSNTQLLECNPRSLIGALLQASQIGLEPNTALGQAYLIPYYNRNKGEFEAQLQLSYLGLIELATRTGQYKAIYAHEVYKEDEFYYEYGLHKNLVHKPVDDPKSEPIGYYAVYHLQNGGYDFSFWTRNKVELHSGQYSKAVQKGWNSPWKTDFNAMAKKTVLKDLLKYAPKSVEVSRAVGTDSKVSEISQNGEIIDVTDYSKEEE
B6: in the assay on gene editing with Cas9, the “Cas9 with SSAP activity” value was 0.679 and the “Cas9 with SSAP activity (normalized)” value amounted to 1.062. For the same molecule, in the assay with gene editing with dCas9, the “dCas9 with SSAP activity” value was −4.023 and the “dCas9 with SSAP activity (normalized)” value was −0.498. Besides, in assay [1], the “Activity across all experiments” value is −1.672.

B7: SSAP_3: SEQ ID NO: 167; RecT Escherichia coli (protein)
chain: MTKQPPIAKADLQKTQGNRAPAAVKNSDVISFINQPSMKEQLAAALPRHMTAERMIRIATTEIRKVPALGNCDTMSFVSAIVQCSQLGLEPGSALGHAYLLPFGNKNEKSGKKNVQLIIGYRGMIDLARRSGQIASLSARVVREGDEFSFEFGLDEKLIHRPGENEDAPVTHVYAVARLKDGGTQFEVMTRKQIELVRSLSKAGNNGPWVTHWEEMAKKTAIRRLFKYLPVSIEIQRAVSMDEKEPLTIDPADSSVLTGEYSVIDNSEE
For B7, in the assay on gene editing with Cas9, the “Cas9 with SSAP activity” value is −0.942 and the “Cas9 with SSAP activity (normalized)” value was −0.788. Further, in the assay with gene editing with dCas9, the “dCas9 with SSAP activity” value was found to be 1.058 and the “dCas9 with SSAP activity (normalized)” value is given as 0.695. For the same molecule, in assay [1], the “Activity across all experiments” value worked out at 0.058.

B8: SSAP_219: SEQ ID NO: 388; Streptomyces uncialis (protein, listed as Streptomyces uncialis)
chain: SQISTAIATRDNGPAAVVEQYRESLALVMPSHLQQRVGAWIRNTQGLLRRDSKLMEAAQNDVGQFVAVLMDAARLGLEPGTEHYYLVPRWNNKKRATEVTGVRGYQGEIELMYRAGAVSSVIVEVVHTQDQFRFRPGRDARPVHDIDWDLEDRGSLRLVYAYAVMKDGATSKVVVLNRQHIAAARAKSDSAAKDWSPWNTDEEAMWLKTAAHRLTKWVPTSAEYLREQIRAQVAVESEQRPEPLPVAPPPAPGTVDADPDDEGPIDGELVD
Regarding B8, in the assay with gene editing with Cas9, the “Cas9 with SSAP activity” value is 0.580 and the “Cas9 with SSAP activity (normalized)” value stood at 0.924. Besides, in the assay on gene editing with dCas9, the “dCas9 with SSAP activity” value is −4.163 and the “dCas9 with SSAP activity (normalized)” value is listed as −0.726. Besides, the “Activity across all experiments” value in assay [1] is on record as −1.792.

B9: SSAP_183: SEQ ID NO: 352; Clostridium sp. CAG: 277 (protein, listed as Clostridium sp.)
chain: DFKEELAAKAEVAATTKKSDGVKLTKNMSIVDMIKALEPEIKRALPSVLTPERFVRMALTAVNNTPALAQCTPMSFIAALMNAAQLGLEPNTPLGQAYLIPYKNKKKGVVECQFQIGYKGMIDLVYRNDNVQTIQAHIVRENDHFEYELGLESKLRHIPAMEGRGEMMYVYALFKLTNGGYGFEVLNKEAVIAHAERYSPSYDGFSPWKTDFESKGLELFLILDLSSKQSGK
As to B9, in the assay with gene editing with Cas9, the “Cas9 with SSAP activity” value is on record as −0.476 and the “Cas9 with SSAP activity (normalized)” value is −0.351. Further, in the assay on gene editing with dCas9, the “dCas9 with SSAP activity” value is recorded as −4.151 and the “dCas9 with SSAP activity (normalized)” value is on record as −0.615. Further, the “Activity across all experiments” value in assay [1] is −2.313.

B10: SSAP_31: SEQ ID NO: 200 (protein)
chain: TTVNQTELKNKLAEKAKTPAKTGNTVFDLIRKMEPEIKRALPKQISPERFARIAMTAVRNTPKLQACEPISFIAALMQSAQLGLEPNTPLGQAYLIPYGKEVQFQLGYQGMLTLAYRTGEYQSIYAMPVYANDEFEYEYGLNEKLVHKPAPDPEGEPIYYYAVYKLKNGGHGFVVMSRQQIERHRDKYSPSAKQGKFSPWNTDFDSMAKKTVLKQLLKYAPKSVEFATQIAQDETIKTEIAEDMTEVQGIEVEYEATDDQENQENQEQED
On to B10, for which, in the assay with gene editing with Cas9, the “Cas9 with SSAP activity” value is −4.826 and the “Cas9 with SSAP activity (normalized)” value is recorded as −0.842. Also, in the assay with gene editing with dCas9, the “dCas9 with SSAP activity” value is reported as −4.110 and the “dCas9 with SSAP activity (normalized)” value was −0.643. The “Activity across all experiments” value in assay [1] was −4.468.

B11: SSAP_171: SEQ ID NO: 340; Streptomyces indicus (protein, listed as Streptomyces indicus)
chain: STDARNAVARRAETVGQVEQQAQQQPTLAQQIERMKPEMERALPKHMSADRMARIALTLIRKNPDLATCNTQSFLGALMTCSQLGFEPGSPTQEAYIIPRKGNAEFQLGYQGMVTLFYQHPMASSIKVETVRENDYFEHEEGLEERLVHRPCATGPRGRAIAYYSVARLINGGRTFKVMYPDEIEERRQKLPSKNSPAWRDNYDEMAKKTVLRNHFKALPKSAQLARALAHDGTVRTDATADVIDVAPEYPQRPELEAGPTA
Consider B11, for which, in the assay on gene editing with Cas9, the “Cas9 with SSAP activity” value was −0.924 and the “Cas9 with SSAP activity (normalized)” value is −0.410. Also, in the assay with gene editing with dCas9, the “dCas9 with SSAP activity” value was −4.132 and the “dCas9 with SSAP activity (normalized)” value is reported as −0.827. The “Activity across all experiments” value in assay [1] is −2.528.

B12: SSAP_86: SEQ ID NO: 255 (protein)
chain: ADLTKTANGADLAAAIGGKQAETGRATAFDLVKSMEAEFAKALPRHVPVEQFMRTAVTELRQNADLQRSTSESLLGAFLTAARLGLEVGGPMGEFYLTPRFAKLPGQDQKAWQVVPIVGYRGLVKLARNAGVGAVKAWVVYEGDHFVEGANSERGPFFDFHPVPGDPAGRKEVGVLAVARLSGGDVQHTYLTIEQVEKRKARGSAGDKGPWATDRAAMIRKSGIRALAGELPQSTLLALARVVDEEVQTYVPGSLVDVGTGELEA
On to B12, for which, in the assay with gene editing with Cas9, the “Cas9 with SSAP activity” value was 0.575 and the “Cas9 with SSAP activity (normalized)” value worked out at 0.280. In addition, in the assay with gene editing with dCas9, the “dCas9 with SSAP activity” value is −3.974 and the “dCas9 with SSAP activity (normalized)” value is on record as −0.714. Also, in assay [1], the “Activity across all experiments” value was −1.700.
